Data published in publication PMC5666746.

Biological target: recombinant extra-cellular domain sequence of DR5 (sDR5) protein (human)
Assay: BLI; ForteBio Octet QKe; biotinylated sDR5 loaded on streptavidin sensors at 1 μM; scFv at two-fold serial dilutions 93.75-6000 nM in SD Buffer (PBS, pH 7.4, 0.02% Tween 20, 0.1% BSA); association 5 min, dissociation 10 min

Sequence of recombinant extra-cellular domain sequence of DR5 (sDR5) protein (human) (O14763 whole entry, the tested form may be a part): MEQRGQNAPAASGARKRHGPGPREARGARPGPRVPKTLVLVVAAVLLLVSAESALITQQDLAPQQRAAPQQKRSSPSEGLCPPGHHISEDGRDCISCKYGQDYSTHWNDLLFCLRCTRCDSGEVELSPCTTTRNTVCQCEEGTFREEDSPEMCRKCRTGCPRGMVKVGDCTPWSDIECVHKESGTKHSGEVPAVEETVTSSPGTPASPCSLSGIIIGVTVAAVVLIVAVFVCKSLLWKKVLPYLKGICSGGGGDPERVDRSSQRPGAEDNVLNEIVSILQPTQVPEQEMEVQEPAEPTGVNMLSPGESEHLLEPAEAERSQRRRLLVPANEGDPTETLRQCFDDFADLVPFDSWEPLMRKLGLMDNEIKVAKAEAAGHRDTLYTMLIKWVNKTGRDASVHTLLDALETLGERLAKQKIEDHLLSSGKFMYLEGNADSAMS

B1: TR2-3, fully human agonistic anti-DR5 single chain fragment variable (scFv) antibody (scFv)
scFv: QVQLQESGPGLVKPSGTLSLTCAVSGGSISSSNWWSWVRQPPGKGLEWIGEIYHSGSTNYNPSLKSRVTISVDKSKNQFSLKLSSVTAADTAVYYCARGAAAGTANDAFDIWGQGTMVTVSSGGGGSGGGGSGGGGSETTLTQSPGILSLSPGERASLSCRASQSVPHNYLAWYQQKPGQAPRLLIYGASNRATGIPDRFSGSGSETDFTLTVTRLAPEDFAVYYCQQYGRSLTFGGGTKVEIKR
Work on B1 yielded a Kd of 126 nM, a koff of 0.00144 s⁻¹ and a kon of 11500 M⁻¹ s⁻¹.
